Results on 27 compounds are retold here after patent publication US20090281042A1 (priority 2005, published 2009).

The term Km denotes the concentration of substrate that gives half-maximal velocity. By kcat is commonly meant the maximal rate divided by the concentration of active sites.

Like-named read-outs stand apart in the source and are kept apart here. Ends that are not written are not given here.

For assay [1], the target named is T1, HCV NS3 protease (Hepatitis C virus genotype 1b, UniProt P26663).
T1 construct: In the case of HCV NS3 protease the site is NS5A/B
T1 sequence (P26663 1027-1208, other chains not shown): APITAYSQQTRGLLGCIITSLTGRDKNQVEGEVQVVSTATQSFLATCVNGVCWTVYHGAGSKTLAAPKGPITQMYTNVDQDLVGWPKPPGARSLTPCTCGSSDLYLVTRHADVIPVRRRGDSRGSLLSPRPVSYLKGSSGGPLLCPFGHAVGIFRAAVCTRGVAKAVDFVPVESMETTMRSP
To be noted: mean ± S.D., cited from earlier work.

Assay [2] concerns the target T1, HCV NS3 protease. The following applies: cited from earlier work.
The next assay addresses SARS 3CL protease (Severe acute respiratory syndrome coronavirus, UniProt P0C6X7).
The next assay addresses HRV 3C protease (Human rhinovirus 16, UniProt Q82122). The format is biochemical, HRV 16.
The next assay deals with E. coli lysate. The format is biochemical. The following applies: FIG. 5.
Where [3] appears, read: Table 7, NS3 + Pep4A, modified decamer peptides vs wild type DEMEECASHL
[4] abbreviates: Table 7, NS3 alone, modified decamer peptides vs wild type DEMEECASHL
Setting [5] is: NS3 + Pep4A, P6 and P1′-modified NS4A/NS4B decamer peptides.
The mark [6] stands for this setting: NS3 alone, P6 and P1′-modified NS4A/NS4B decamer peptides.

`O=C(O)CN(CCN(CC(=O)O)CC(=O)O)CC(=O)O` [EDTA]: in the assay with HeLa lysate, the “effect of protease inhibitor on cleavage of Pep1” value (“effect of protease inhibitor” for short) is listed as “partially inhibited”.
As for `O=C(O)CN(CCOCCOCCN(CC(=O)O)CC(=O)O)CC(=O)O` [EGTA], in the assay on HeLa lysate (Pep1 as substrate), the “effect of protease inhibitor” value was “partially inhibited”.
In the case of `O=S(=O)(F)Cc1ccccc1` [PMSF], the “effect of protease inhibitor” value with HeLa lysate (Pep1 as substrate) is “relative insensitivity”.
On to AEMEECASHL, for which, in the assay with HCV NS3 protease [1] (setting [3]), the Michaelis-Menten constant (Km) was 55 ± 11 µM and the kcat was 0.015 ± 0.001 s⁻¹. Further, in the assay with HCV NS3 protease [1] (setting [4]), the Km was 125 ± 28 µM and the kcat is 0.00167 ± 0.00033 s⁻¹.
For Aprotinin, the “effect of protease inhibitor” value with HeLa lysate (Pep1 as substrate) was “relative insensitivity”.
Regarding BTLEFCSñSY [Pep B5s], at HCV NS3 protease [2] (absence (−) of 150 mM Nacl), the Keat is 23 min⁻¹ and the Km is 3.5 µM. For the same compound, at HCV NS3 protease [2] (presence (+) of 150 mM Nacl), the Keat is 36 min⁻¹ and the Km is 27 µM.
Take DAMEECASHL: in the assay with HCV NS3 protease [1] (setting [3]), the Km is 143 ± 27 µM and the kcat was 0.0455 ± 0.014 s⁻¹. In addition, in the assay with HCV NS3 protease [1] (setting [4]), the Km is 569 ± 150 µM and the kcat was 0.0143 ± 0.00767 s⁻¹.
For the compound DEAEECASHL, the Michaelis-Menten constant (Km) with HCV NS3 protease [1] (setting [3]) was 124 ± 22 µM; in the assay with HCV NS3 protease [1] (setting [4]), 409 ± 24 µM. Further, the kcat with HCV NS3 protease [1] (setting [3]) was 0.0355 ± 0.005 s⁻¹; with HCV NS3 protease [1] (setting [4]) it was 0.005 ± 0.00033 s⁻¹.
With DEMAECASHL, the Km was 190 ± 35 µM with HCV NS3 protease [1] (setting [3]) and 790 ± 205 µM with HCV NS3 protease [1] (setting [4]). The results for the kcat in the assay with HCV NS3 protease [1] (setting [3]) and with HCV NS3 protease [1] (setting [4]) were 0.0468 ± 0.011 s⁻¹ and 0.0055 ± 0.001 s⁻¹, respectively.
For DEMEACASHL, the Km was 148 ± 44 µM with HCV NS3 protease [1] (setting [3]) and 171 ± 23 µM in the assay with HCV NS3 protease [1] (setting [4]). The kcat with HCV NS3 protease [1] (setting [3]) is 0.0432 ± 0.01 s⁻¹; with HCV NS3 protease [1] (setting [4]), 0.00433 ± 0.00017 s⁻¹.
DEMEEAASHL: the turnover number (kcat) result in the assay with HCV NS3 protease [1] (setting [3]) and in the assay with HCV NS3 protease [1] (setting [4]) was “not cleaved” each time.
DEMEECAAHL: in the assay with HCV NS3 protease [1] (setting [3]), the Km was 144 ± 5.6 µM and the catalytic constant (kcat) was 0.0513 ± 0.0025 s⁻¹. Also, in the assay with HCV NS3 protease [1] (setting [4]), the Km is 191 ± 11 µM and the turnover number (kcat) is 0.0112 ± 0.00067 s⁻¹.
Consider DEMEECASAL, for which the Km is 130 ± 15 µM with HCV NS3 protease [1] (setting [3]) and 231 ± 39 µM with HCV NS3 protease [1] (setting [4]). The turnover number (kcat) with HCV NS3 protease [1] (setting [3]) is 0.0602 ± 0.016 s⁻¹; in the assay with HCV NS3 protease [1] (setting [4]), 0.0142 ± 0.00267 s⁻¹.
DEMEECASHA: in the assay with HCV NS3 protease [1] (setting [3]), the Km was 219 ± 10 µM and the turnover number (kcat) is 0.05 ± 0.0157 s⁻¹. Moreover, in the assay with HCV NS3 protease [1] (setting [4]), the Michaelis constant (Km) was 260 ± 37 µM and the kcat was 0.00967 ± 0.002 s⁻¹.
In the case of DEMEECASHL, the Michaelis constant (Km) is 42.8 ± 4.1 µM with HCV NS3 protease [1] (setting [5]), 105 ± 20 µM in the assay with HCV NS3 protease [1] (setting [6]), 42.8 ± 4.1 µM in the assay with HCV NS3 protease [1] (setting [3]) and 105 ± 20 µM with HCV NS3 protease [1] (setting [4]). Moreover, the catalytic constant (kcat) with HCV NS3 protease [1] (setting [5]) is 0.0233 ± 0.0012 s⁻¹; with HCV NS3 protease [1] (setting [6]), 0.00433 ± 0.0005 s⁻¹; with HCV NS3 protease [1] (setting [3]), 0.0233 ± 0.0012 s⁻¹; with HCV NS3 protease [1] (setting [4]), 0.00433 ± 0.0005 s⁻¹.
For the compound DEMEECASHL [NS4A/4Bs], in the assay with HCV NS3 protease [2] (absence (−) of 150 mM Nacl), the Keat was 4 min⁻¹ and the Km is 10 µM. Also, in the assay with HCV NS3 protease [2] (presence (+) of 150 mM Nacl), the Keat is 4 min⁻¹ and the Km is 500 µM.
As to DEMEECFSHL, in the assay with HCV NS3 protease [1] (setting [5]), the Km is 156 ± 54 µM and the catalytic constant (kcat) is 0.00333 ± 0.00033 s⁻¹.
Regarding DEMEECSSHL, in the assay with HCV NS3 protease [1] (setting [5]), the Km is 246 ± 54 µM and the turnover number (kcat) was 0.0277 ± 0.00367 s⁻¹. For the same compound, in the assay with HCV NS3 protease [1] (setting [6]), the Michaelis-Menten constant (Km) is 273 ± 21 µM and the kcat was 0.00533 ± 0.00017 s⁻¹.
With EDVVaCSñSY [B14s(NS5A/B)], at HCV NS3 protease [2] (absence (−) of 150 mM Nacl), the Keat was 34 min⁻¹ and the Michaelis-Menten constant (Km) is 4 µM. In addition, at HCV NS3 protease [2] (presence (+) of 150 mM Nacl), the Keat is 47 min⁻¹ and the Michaelis constant (Km) was 10 µM.
For the compound EEMEECASHL, the values for the Km in the assay with HCV NS3 protease [1] (setting [5]) and with HCV NS3 protease [1] (setting [6]) were 166 ± 15 µM and 254 ± 44 µM, respectively. Also, the values for the kcat with HCV NS3 protease [1] (setting [5]) and in the assay with HCV NS3 protease [1] (setting [6]) were 0.0482 ± 0.00333 s⁻¹ and 0.0107 ± 0.00067 s⁻¹, respectively.
Regarding “ENSVPCSñSY (not fully specified (C-terminus); printed as ENSVPCSñSY; also: code ñ has no stated meaning) [Pep B28s, substrate peptide for HCV NS3 protease based on selected cleavage site]”, in the assay with HCV NS3 protease [2] (absence (−) of 150 mM Nacl), the Keat was 4 min⁻¹ and the Michaelis constant (Km) was 15 µM. Also, in the assay with HCV NS3 protease [2] (presence (+) of 150 mM Nacl), the Keat was 14.5 min⁻¹ and the Km was 56 µM.
With “EQVVRCSñSY (not fully specified (C-terminus); printed as EQVVRCSñSY; also: code ñ has no stated meaning) [Pep B8s, substrate peptide for HCV NS3 protease based on selected cleavage site]”, in the assay with HCV NS3 protease [2] (absence (−) of 150 mM Nacl), the Keat was 3 min⁻¹ and the Michaelis-Menten constant (Km) was 7 µM. Moreover, in the assay with HCV NS3 protease [2] (presence (+) of 150 mM Nacl), the Keat is 10.5 min⁻¹ and the Km was 21 µM.
“ERLVLCSñSY (not fully specified (C-terminus); printed as ERLVLCSñSY; also: code ñ has no stated meaning) [Pep B19s, substrate peptide for HCV NS3 protease based on selected cleavage site]”: in the assay with HCV NS3 protease [2] (absence (−) of 150 mM Nacl), the Keat is 30 min⁻¹ and the Michaelis constant (Km) was 11 µM. Besides, in the assay with HCV NS3 protease [2] (presence (+) of 150 mM Nacl), the Keat is 49 min⁻¹ and the Km is 12 µM.
As to “ERVVLCSñSY (not fully specified (C-terminus); printed as ERVVLCSñSY; also: code ñ has no stated meaning) [Pep B15s, substrate peptide for HCV NS3 protease based on selected cleavage site]”, in the assay with HCV NS3 protease [2] (absence (−) of 150 mM Nacl), the Keat was 30 min⁻¹ and the Km is 30 µM. Also, in the assay with HCV NS3 protease [2] (presence (+) of 150 mM Nacl), the Keat was 44.5 min⁻¹ and the Km was 13 µM.
Consider KEMEECASHL, for which, in the assay with HCV NS3 protease [1] (setting [5]), the Michaelis-Menten constant (Km) is 449 ± 91 µM and the kcat was 0.0447 ± 0.00033 s⁻¹. Moreover, in the assay with HCV NS3 protease [1] (setting [6]), the Km is 1050 ± 430 µM and the catalytic constant (kcat) is 0.00433 ± 0.00167 s⁻¹.
Take NEMEECASHL: in the assay with HCV NS3 protease [1] (setting [5]), the Michaelis constant (Km) is 188 ± 44 µM and the kcat is 0.0483 ± 0.00767 s⁻¹. For the same compound, in the assay with HCV NS3 protease [1] (setting [6]), the Km is 630 ± 62 µM and the kcat is 0.00617 ± 0.00417 s⁻¹.
Take “Pep1: designed fluorescent (EDANS/DABCYL) 3C protease substrate based on multiple HRV 3C cleavage sites and bioinformatics, Table 14 (LEALFQGPDSQ; not fully specified)”: the “cleavage reaction with SARS 3CL lysate” value with SARS 3CL protease is given as “absence of any detectable cleavage reaction”. Besides, in the assay with HRV 3C protease, the “duration of linear kinetics” value is “at least 3 minutes”, the “effect of nasal wash on substrate cleavage by recombinant HRV 3C” value is listed as “absence of effect”, the “lower limit of protease detection” value is 0.5 to 1.0 nM and the “specificity of substrate for cleavage with HRV 3C protease” value is reported as “absolute specificity”. In the assay with HRV 3C protease, the “substrate cleavage compared to the native cleavage site (Ori 2)” value is reported as “superior substrate cleavage” and the “substrate exhibiting the most rapid kinetics out of Pep 1-Pep 9” value is given as “most rapid kinetics”. In addition, in the assay on E. coli lysate, the “cleavage reaction with E. coli lysate” value is “absence of any detectable cleavage reaction”.
